# B1: SCRM (1-494), recombinant (natural protein, Arabidopsis thaliana, UniProt Q9LSE2 1-494, looked up)
# chain: MGLDGNNGGGVWLNGGGGEREENEEGSWGRNQEDGSSQFKPMLEGDWFSSNQPHPQDLQMLQNQPDFRYFGGFPFNPNDNLLLQHSIDSSSSCSPSQAFSLDPSQQNQFLSTNNNKGCLLNVPSSANPFDNAFEFGSESGFLNQIHAPISMGFGSLTQLGNRDLSSVPDFLSARSLLAPESNNNNTMLCGGFTAPLELEGFGSPANGGFVGNRAKVLKPLEVLASSGAQPTLFQKRAAMRQSSGSKMGNSESSGMRRFSDDGDMDETGIEVSGLNYESDEINESGKAAESVQIGGGGKGKKKGMPAKNLMAERRRRKKLNDRLYMLRSVVPKISKMDRASILGDAIDYLKELLQRINDLHNELESTPPGSLPPTSSSFHPLTPTPQTLSCRVKEELCPSSLPSPKGQQARVEVRLREGRAVNIHMFCGRRPGLLLATMKALDNLGLDVQQAVISCFNGFALDVFRAEQCQEGQEILPDQIKAVLFDTAGYAGMI
# notes: SCREAM (SCRM, ICE1), Arabidopsis thaliana, At3G26744, residues 1-494; the purification methods tell thrombin cleavage; source: E. coli BL21, purified (glutathione resin, thrombin, Superdex-200); not shown: GST, N-terminal, cleaved
# B2: MUTE (1-202), recombinant (natural protein, Arabidopsis thaliana, UniProt Q9M8K6 1-202, looked up)
# chain: MSHIAVERNRRRQMNEHLKSLRSLTPCFYIKRGDQASIIGGVIEFIKELQQLVQVLESKKRRKTLNRPSFPYDHQTIEPSSLGAATTRVPFSRIENVMTTSTFKEVGACCNSPHANVEAKISGSNVVLRVVSRRIVGQLVKIISVLEKLSFQVLHLNISSMEETVLYFFVVKIGLECHLSLEELTLEVQKSFVSDEVIVSTN
# notes: MUTE, Arabidopsis thaliana, residues 1-202; MUTE (1-202) was cloned both in pGEX-4T-1 (N-terminal GST, thrombin cleaved) and in pET28a (N-terminal His tag); also called purified MUTE; MUTE-HIS; source: E. coli BL21, purified (Ni-NTA, Superdex-200)
# What was measured:
# SPCH-ACTL (285-364) = target: T1, SPCH-ACTL (285-364) (Arabidopsis thaliana, UniProt Q700C7 285-364); test: ITC; Malvern PEAQ-ITC; 150 µM SCRM ACTL/SCRM L484F ACTL injected into 15 µM SPCH ACTL/MUTE ACTL; PBS, pH 7.2 (Table S3; methods: pH 7.4); 25 °C; means of two experiments; conditions: both partners purified
# T1 construct: also called SPCH ACTL domain; source: E. coli BL21, purified (glutathione resin, thrombin, Superdex-200); not shown: GST, N-terminal, cleaved
# T1 sequence (looked up): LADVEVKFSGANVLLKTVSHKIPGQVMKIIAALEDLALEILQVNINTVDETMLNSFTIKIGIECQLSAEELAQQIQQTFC
# MUTE-ACTL (114-202) = target: T2, MUTE-ACTL (114-202) (Arabidopsis thaliana, UniProt Q9M8K6 114-202); test: as above; conditions: both partners purified
# T2 construct: MUTE, Arabidopsis thaliana, C-terminal ACT-like domain, residues 114-202; also called MUTE ACTL domain; source: E. coli BL21, purified (glutathione resin, thrombin, Superdex-200); not shown: GST, N-terminal, cleaved
# T2 sequence (looked up): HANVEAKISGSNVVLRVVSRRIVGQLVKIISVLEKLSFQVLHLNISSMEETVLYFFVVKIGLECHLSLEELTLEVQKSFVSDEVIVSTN
# MUTE (1-202) = target: T3, MUTE (1-202) (Arabidopsis thaliana, UniProt Q9M8K6 1-202); test: ITC; Malvern PEAQ-ITC; 40 µM SCRM/SCRMΔC injected into 4 µM SPCH/MUTE/FAMA; PBS, pH 7.2 (Table S1; methods: pH 7.4); 25 °C; single binding site model; means of two experiments; conditions: both partners purified
# T3 construct: MUTE, Arabidopsis thaliana, residues 1-202; MUTE (1-202) was made both as a GST fusion (pGEX-4T-1, thrombin-cleavable) and with an N-terminal His tag (pET28a); also called MUTE-HIS; MUTE-histag; source: E. coli BL21, purified (Ni-NTA or glutathione resin, Superdex-200)
# T3 sequence (looked up): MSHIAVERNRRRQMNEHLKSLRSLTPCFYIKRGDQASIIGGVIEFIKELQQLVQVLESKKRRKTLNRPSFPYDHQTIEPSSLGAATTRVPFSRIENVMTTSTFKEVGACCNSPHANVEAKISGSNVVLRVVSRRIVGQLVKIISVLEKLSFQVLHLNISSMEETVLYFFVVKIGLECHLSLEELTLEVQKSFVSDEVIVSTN
# SPCH (ΔNSPCH, 98-364) = target: T4, SPCH (ΔNSPCH, 98-364) (Arabidopsis thaliana, UniProt Q700C7 98-364); test: as above; conditions: both partners purified
# T4 construct: the only recombinant SPCH with bHLH domain that the methods list is ΔNSPCH (98-364); source: E. coli BL21, purified (glutathione resin, thrombin, Superdex-200); not shown: GST, N-terminal, cleaved
# T4 sequence (looked up): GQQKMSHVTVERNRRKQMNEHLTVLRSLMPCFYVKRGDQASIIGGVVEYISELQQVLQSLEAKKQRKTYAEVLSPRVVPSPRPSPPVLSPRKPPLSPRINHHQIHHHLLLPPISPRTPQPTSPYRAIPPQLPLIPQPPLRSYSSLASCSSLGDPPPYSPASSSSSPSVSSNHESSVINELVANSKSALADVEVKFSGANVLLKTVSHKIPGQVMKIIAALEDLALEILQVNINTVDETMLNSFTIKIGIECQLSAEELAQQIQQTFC
# FAMA (ΔNFAMA) = target: T5, FAMA (ΔNFAMA) (Arabidopsis thaliana, Limits not printed. Start set by analogy with the printed ΔNSPCH 98-364 (one residue before the annotated bHLH). Runs to the native C-terminus. Tag or fusion carrier omitted.); test: as above; conditions: both partners purified
# T5 chain: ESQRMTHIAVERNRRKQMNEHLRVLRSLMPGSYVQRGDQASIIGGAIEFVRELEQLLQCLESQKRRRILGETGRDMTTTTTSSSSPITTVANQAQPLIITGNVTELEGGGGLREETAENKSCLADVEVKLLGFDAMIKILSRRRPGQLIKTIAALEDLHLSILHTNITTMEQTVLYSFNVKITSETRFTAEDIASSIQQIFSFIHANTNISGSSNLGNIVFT
# [1] = target: T6, ΔNSPCH (98-364), recombinant (Arabidopsis thaliana, UniProt Q700C7 98-364); test: ITC; Malvern PEAQ-ITC, 25 °C, PBS pH 7.4; 40 μM SCRM/SCRMΔC injected into 4 μM SPCH/MUTE/FAMA; single binding site model; conditions: both partners purified
# T6 construct: BLI and ITC name it only SPCH; ΔNSPCH (98-364) is the only long recombinant SPCH construct that the methods list; also called purified SPCH; source: E. coli BL21, purified (glutathione resin, thrombin, Superdex-200); not shown: GST, N-terminal, cleaved
# T6 sequence (looked up): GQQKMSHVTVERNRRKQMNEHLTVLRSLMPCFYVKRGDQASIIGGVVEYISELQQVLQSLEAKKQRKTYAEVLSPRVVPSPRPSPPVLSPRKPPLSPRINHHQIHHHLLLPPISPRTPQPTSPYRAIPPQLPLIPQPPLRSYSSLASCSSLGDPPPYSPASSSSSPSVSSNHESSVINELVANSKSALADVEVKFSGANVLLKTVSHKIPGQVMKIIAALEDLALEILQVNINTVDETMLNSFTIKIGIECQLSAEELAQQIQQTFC
# ΔNFAMA, recombinant = target: T7, ΔNFAMA, recombinant (Arabidopsis thaliana, Limits not printed. Start set by analogy with the printed ΔNSPCH 98-364, which starts one residue before its annotated bHLH (99); FAMA bHLH is 194-245. Runs to the native C-terminus, including the ACT); test: as above; conditions: both partners purified
# T7 chain: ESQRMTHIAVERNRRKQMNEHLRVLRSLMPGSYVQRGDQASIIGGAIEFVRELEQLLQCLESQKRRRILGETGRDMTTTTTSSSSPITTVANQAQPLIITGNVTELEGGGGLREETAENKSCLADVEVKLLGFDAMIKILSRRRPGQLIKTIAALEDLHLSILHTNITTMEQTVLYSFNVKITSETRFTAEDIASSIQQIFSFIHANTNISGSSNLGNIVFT
# [2] = target: B2; test: as above; conditions: both partners purified
# [3] = target: GST-fused SCRMΔC (1-404) (Arabidopsis thaliana) (UniProt Q9LSE2); test: BLI; as a3, samples incubated for 30 min with a 1:4 molar ratio of the TMM promoter DNA fragment
# [4] = target: GST-fused SCRMΔC (1-404) (Arabidopsis thaliana) (UniProt Q9LSE2); test: BLI; as a3, samples incubated for 30 min with a 1:4 molar ratio of the synthetic E-box DNA fragment
# GST-fused SCRM (1-494) = target: T8, GST-fused SCRM (1-494) (Arabidopsis thaliana, UniProt Q9LSE2 1-494); test: BLI; Octet Red96; anti-GST probes loaded with 500 nM GST-SCRM or GST-SCRMΔC; SPCH/MUTE/FAMA as analyte at 3.12-200 nM; 30 °C; 1x PBS with 0.02% Tween 20; no DNA; 1:1 model; conditions: both partners purified
# T8 construct: SCREAM (SCRM, ICE1), Arabidopsis thaliana, At3G26744, residues 1-494; GST kept for loading on anti-GST probes; also called GST SCRM; GST-tagged SCRM; source: E. coli BL21, purified (glutathione agarose resin); not shown: GST, N-terminal, kept
# T8 sequence (looked up): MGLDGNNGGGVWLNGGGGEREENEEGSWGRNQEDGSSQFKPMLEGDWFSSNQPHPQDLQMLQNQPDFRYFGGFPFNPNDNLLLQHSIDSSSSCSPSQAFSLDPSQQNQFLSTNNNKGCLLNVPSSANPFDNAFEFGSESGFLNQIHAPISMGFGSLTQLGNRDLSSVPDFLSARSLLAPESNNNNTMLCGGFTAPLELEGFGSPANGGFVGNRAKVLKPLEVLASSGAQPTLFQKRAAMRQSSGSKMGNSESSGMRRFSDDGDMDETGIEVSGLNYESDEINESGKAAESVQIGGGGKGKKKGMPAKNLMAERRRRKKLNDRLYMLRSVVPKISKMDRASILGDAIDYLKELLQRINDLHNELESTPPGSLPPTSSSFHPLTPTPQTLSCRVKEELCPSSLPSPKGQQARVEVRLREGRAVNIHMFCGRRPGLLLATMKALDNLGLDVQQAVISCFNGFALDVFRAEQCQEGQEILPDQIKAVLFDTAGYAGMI
# [5] = target: B1; test: ITC; Malvern PEAQ-ITC, 25 °C, PBS pH 7.4; 40 μM SCRM/SCRMΔC injected into 4 μM SPCH/MUTE/FAMA; single binding site model; conditions: both partners purified
binder,measurement,setting,value
"SCRM ACTL (405-494) (domain or fragment, Arabidopsis thaliana, UniProt Q9LSE2 405-494, looked up, SCREAM (SCRM, ICE1), Arabidopsis thaliana, At3G26744, C-terminal ACT-like domain, residues 405-494; also called SCRM ACTL domain; source: E. coli BL21, purified (glutathione resin, Superdex-200)) KGQQARVEVRLREGRAVNIHMFCGRRPGLLLATMKALDNLGLDVQQAVISCFNGFALDVFRAEQCQEGQEILPDQIKAVLFDTAGYAGMI",stoichiometry N,SPCH-ACTL (285-364),0.95
same,stoichiometry N,MUTE-ACTL (114-202),0.95
"SCRM (1-494), GST removed (natural protein, Arabidopsis thaliana, UniProt Q9LSE2 1-494, looked up, SCREAM (SCRM, ICE1), Arabidopsis thaliana, At3G26744, residues 1-494; Used for ITC; the methods tell thrombin cleavage of the GST-fused proteins in general, not for ITC by name; also called SCREAM; ICE1; source: E. coli BL21, purified (glutathione resin, thrombin, Superdex-200); not shown: GST, N-terminal, cleaved) MGLDGNNGGGVWLNGGGGEREENEEGSWGRNQEDGSSQFKPMLEGDWFSSNQPHPQDLQMLQNQPDFRYFGGFPFNPNDNLLLQHSIDSSSSCSPSQAFSLDPSQQNQFLSTNNNKGCLLNVPSSANPFDNAFEFGSESGFLNQIHAPISMGFGSLTQLGNRDLSSVPDFLSARSLLAPESNNNNTMLCGGFTAPLELEGFGSPANGGFVGNRAKVLKPLEVLASSGAQPTLFQKRAAMRQSSGSKMGNSESSGMRRFSDDGDMDETGIEVSGLNYESDEINESGKAAESVQIGGGGKGKKKGMPAKNLMAERRRRKKLNDRLYMLRSVVPKISKMDRASILGDAIDYLKELLQRINDLHNELESTPPGSLPPTSSSFHPLTPTPQTLSCRVKEELCPSSLPSPKGQQARVEVRLREGRAVNIHMFCGRRPGLLLATMKALDNLGLDVQQAVISCFNGFALDVFRAEQCQEGQEILPDQIKAVLFDTAGYAGMI",stoichiometry N,MUTE (1-202),1.03
same,stoichiometry N,"SPCH (ΔNSPCH, 98-364)",1.02
same,stoichiometry N,FAMA (ΔNFAMA),0.91
B1,stoichiometry N,[1],1
same,stoichiometry N,"ΔNFAMA, recombinant",1
same,stoichiometry N,[2],1
B2,Kd,[3],565 nM
same,Kd,[4],545 nM
same,Kd,GST-fused SCRM (1-494),7.3 ± 1.5 nM
same,Kd,[5],10.5 ± 2.1 nM
